Reference: paper PMC9482650, “Quantitative fragmentomics allow affinity mapping of interactomes” (Nature Communications, 2022)

Assays:
Experiment in all cases: holdup assay
Parameters in all cases: key: below the threshold = too weak to quantify, mostly under pKd 3.1 to 4
[1] = molecular target: T1, DVL3, Q92997
T1 sequence (Q92997 244-331, limits assumed, looked up): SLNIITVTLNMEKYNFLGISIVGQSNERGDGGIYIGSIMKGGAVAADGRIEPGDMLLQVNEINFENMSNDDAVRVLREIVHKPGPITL

[2] = molecular target: Inadl_1, Q8NI35
[3] = molecular target: T2, PCLO, Q9Y6V0
T2 sequence (Q9Y6V0 4491-4600, limits assumed, looked up): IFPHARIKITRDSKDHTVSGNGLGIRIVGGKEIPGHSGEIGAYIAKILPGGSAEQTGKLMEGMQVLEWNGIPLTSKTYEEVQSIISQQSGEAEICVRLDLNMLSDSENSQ

[4] = molecular target: IL16_4, Q14005
[5] = molecular target: MAST1, Q9Y2H9
[6] = molecular target: T3, CARD11, Q9BXL7
T3 sequence (Q9BXL7 662-765, limits assumed, looked up): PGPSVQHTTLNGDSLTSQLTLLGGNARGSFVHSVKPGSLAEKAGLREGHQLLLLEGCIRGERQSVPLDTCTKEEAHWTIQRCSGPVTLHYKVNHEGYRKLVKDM

[7] = molecular target: IL16_1, Q14005
[8] = molecular target: SCRIB_1, Q14160
[9] = molecular target: PTPN3, P26045
[10] = molecular target: GORASP2, Q9H8Y8
[11] = molecular target: T4, MPDZ_12, O75970
T4 sequence (O75970 1857-1958, limits assumed, looked up): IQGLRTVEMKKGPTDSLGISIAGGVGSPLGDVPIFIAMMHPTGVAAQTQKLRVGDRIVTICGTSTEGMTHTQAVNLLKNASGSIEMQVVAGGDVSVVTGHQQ

[12] = molecular target: Inadl_4, Q8NI35
[13] = molecular target: NHERF2_2, Q15599
[14] = molecular target: T5, MPP7, Q5T2T1
T5 sequence (Q5T2T1 134-230, limits assumed, looked up): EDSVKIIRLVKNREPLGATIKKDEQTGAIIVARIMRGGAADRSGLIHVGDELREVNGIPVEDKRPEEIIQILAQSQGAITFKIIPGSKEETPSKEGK

[15] = molecular target: GRASP, Q7Z6J2
[16] = molecular target: MAGI1_2, Q96QZ7
[17] = molecular target: LIMK2, P53671
[18] = molecular target: T6, RHPN1, Q8TCX5
T6 sequence (Q8TCX5 508-602, limits assumed, looked up): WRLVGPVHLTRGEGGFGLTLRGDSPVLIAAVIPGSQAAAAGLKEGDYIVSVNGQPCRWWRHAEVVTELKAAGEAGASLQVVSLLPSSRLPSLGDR

[19] = molecular target: T7, GRIP1_7, Q9Y3R0
T7 sequence (Q9Y3R0 999-1096, limits assumed, looked up): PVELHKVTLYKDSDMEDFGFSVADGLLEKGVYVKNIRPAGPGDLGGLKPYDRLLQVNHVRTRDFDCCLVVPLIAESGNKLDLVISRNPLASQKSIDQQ

[20] = molecular target: DLG2_3, Q15700
[21] = molecular target: FRMPD4, Q14CM0
[22] = molecular target: MAGI2_2, Q86UL8
[23] = molecular target: NOS1, P29475
[24] = molecular target: CASK, O14936
[25] = molecular target: T8, DFNB31_1, Q9P202
T8 sequence (Q9P202 135-233, limits assumed, looked up): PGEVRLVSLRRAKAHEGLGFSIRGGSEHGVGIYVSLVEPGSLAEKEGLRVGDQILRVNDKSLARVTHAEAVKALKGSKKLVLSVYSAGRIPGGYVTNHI

[26] = molecular target: TJP1_3, Q07157
[27] = molecular target: T9, LRRC7, Q96NW7
T9 sequence (Q96NW7 1440-1537, limits assumed, looked up): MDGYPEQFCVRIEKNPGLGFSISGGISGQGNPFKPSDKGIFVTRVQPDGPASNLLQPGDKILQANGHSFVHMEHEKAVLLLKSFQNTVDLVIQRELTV

[28] = molecular target: MAST2, Q6P0Q8
[29] = molecular target: DLG2_2, Q15700
[30] = molecular target: FRMPD2_2, Q68DX3
[31] = plain residues with an end cap or a label only (N-terminal biotin on a linker: gsgsgs; C-terminal amide)
[32] = plain residues with an end cap or a label only (N-terminal biotin on a linker: ahx)
[33] = plain residues with an end cap or a label only (N-terminal biotin on a linker: ttds)

Chain of FRMPD2_2, Q68DX3 (Q68DX3 944-1038): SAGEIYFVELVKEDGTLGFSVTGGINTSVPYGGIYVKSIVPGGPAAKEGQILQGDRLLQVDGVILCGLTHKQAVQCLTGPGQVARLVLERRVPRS
Chain of CASK, O14936 (O14936 487-570): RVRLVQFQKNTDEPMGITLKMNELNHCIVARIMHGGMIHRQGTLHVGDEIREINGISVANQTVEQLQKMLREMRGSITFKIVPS
Chain of IL16_1, Q14005 (Q14005 210-306): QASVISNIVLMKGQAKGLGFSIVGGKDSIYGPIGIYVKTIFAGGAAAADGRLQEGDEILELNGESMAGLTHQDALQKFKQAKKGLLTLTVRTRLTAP
Chain of IL16_4, Q14005 (Q14005 1229-1329): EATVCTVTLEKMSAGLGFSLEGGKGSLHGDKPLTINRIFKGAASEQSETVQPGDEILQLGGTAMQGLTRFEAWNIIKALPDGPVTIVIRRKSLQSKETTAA
Chain of NOS1, P29475 (P29475 9-101): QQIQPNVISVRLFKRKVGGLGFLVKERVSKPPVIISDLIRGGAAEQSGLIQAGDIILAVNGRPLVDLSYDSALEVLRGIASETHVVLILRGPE
Chain of Inadl_4, Q8NI35 (Q8NI35 547-651): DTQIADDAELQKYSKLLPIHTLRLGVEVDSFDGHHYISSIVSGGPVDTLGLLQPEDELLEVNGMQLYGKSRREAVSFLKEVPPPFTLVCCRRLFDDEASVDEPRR
Chain of SCRIB_1, Q14160 (Q14160 718-814): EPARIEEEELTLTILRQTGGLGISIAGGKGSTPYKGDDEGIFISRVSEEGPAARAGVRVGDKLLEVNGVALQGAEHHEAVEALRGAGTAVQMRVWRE
Chain of NHERF2_2, Q15599 (Q15599 142-238): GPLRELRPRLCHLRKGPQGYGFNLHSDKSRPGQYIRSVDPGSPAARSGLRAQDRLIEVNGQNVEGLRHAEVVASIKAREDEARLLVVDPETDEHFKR
Chain of MAGI2_2, Q86UL8 (Q86UL8 410-522): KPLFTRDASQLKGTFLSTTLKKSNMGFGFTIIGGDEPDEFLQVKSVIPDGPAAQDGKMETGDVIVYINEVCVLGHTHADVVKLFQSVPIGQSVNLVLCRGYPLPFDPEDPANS
Chain of MAST1, Q9Y2H9 (Q9Y2H9 962-1065): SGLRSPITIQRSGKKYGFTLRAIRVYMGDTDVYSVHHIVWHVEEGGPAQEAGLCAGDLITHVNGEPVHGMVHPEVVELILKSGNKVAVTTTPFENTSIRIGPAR
Chain of LIMK2, P53671 (P53671 143-248): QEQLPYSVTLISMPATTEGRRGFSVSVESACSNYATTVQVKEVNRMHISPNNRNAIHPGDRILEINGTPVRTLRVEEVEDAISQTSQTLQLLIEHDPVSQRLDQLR
Chain of GRASP, Q7Z6J2 (Q7Z6J2 96-193): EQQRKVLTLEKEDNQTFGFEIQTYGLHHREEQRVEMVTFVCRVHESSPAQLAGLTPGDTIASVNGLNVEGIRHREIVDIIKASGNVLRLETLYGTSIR
Chain of MAST2, Q6P0Q8 (Q6P0Q8 1099-1202): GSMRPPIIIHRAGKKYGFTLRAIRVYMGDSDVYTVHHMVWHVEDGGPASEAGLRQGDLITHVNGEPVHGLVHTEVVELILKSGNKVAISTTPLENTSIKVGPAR
Chain of FRMPD4, Q14CM0 (Q14CM0 67-160): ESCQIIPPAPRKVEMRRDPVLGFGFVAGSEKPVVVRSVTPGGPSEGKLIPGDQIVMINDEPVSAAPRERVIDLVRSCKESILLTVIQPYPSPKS
Chain of Inadl_1, Q8NI35 (Q8NI35 113-229): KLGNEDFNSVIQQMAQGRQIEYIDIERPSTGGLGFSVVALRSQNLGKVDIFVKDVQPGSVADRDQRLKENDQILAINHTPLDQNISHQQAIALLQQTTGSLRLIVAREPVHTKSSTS
Chain of PTPN3, P26045 (P26045 505-587): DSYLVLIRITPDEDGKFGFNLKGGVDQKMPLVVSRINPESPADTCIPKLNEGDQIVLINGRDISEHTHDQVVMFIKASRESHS
Chain of MAGI1_2, Q96QZ7 (Q96QZ7 456-580): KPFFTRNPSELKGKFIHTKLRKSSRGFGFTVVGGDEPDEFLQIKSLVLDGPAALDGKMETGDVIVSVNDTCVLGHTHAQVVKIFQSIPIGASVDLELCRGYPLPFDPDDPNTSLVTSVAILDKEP
Chain of TJP1_3, Q07157 (Q07157 416-512): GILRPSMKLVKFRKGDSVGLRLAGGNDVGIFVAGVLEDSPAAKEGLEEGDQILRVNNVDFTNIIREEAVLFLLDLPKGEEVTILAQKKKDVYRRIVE

Q: TLSLTDSSVDGIPPYR [AXIN1_int, O15169] was tested. Which pKd [1, 31] did it give?
A: below the threshold

Q: And the pKd [2, 31]?
A: below the threshold

Q: And the pKd [3, 31]?
A: below the threshold

Q: And the pKd [4, 31]?
A: below the threshold

Q: And the pKd [5, 31]?
A: 3.68

Q: What about the pKd [6, 31] of the same binder?
A: below the threshold

Q: What about the pKd [7, 31] of the same binder?
A: 3.48

Q: And the pKd [8, 31]?
A: below the threshold

Q: And the pKd [9, 31]?
A: 3.83

Q: What about the pKd [10, 31] of the same binder?
A: below the threshold

Q: What about the pKd [11, 31] of the same binder?
A: 3.55

Q: And the pKd [12, 31]?
A: below the threshold

Q: What about the pKd [13, 31] of the same binder?
A: below the threshold

Q: And the pKd [14, 31]?
A: below the threshold

Q: And the pKd [15, 31]?
A: below the threshold

Q: And the pKd [16, 31]?
A: below the threshold

Q: What about the pKd [17, 31] of the same binder?
A: below the threshold

Q: What about the pKd [18, 31] of the same binder?
A: below the threshold

Q: What about the pKd [19, 31] of the same binder?
A: below the threshold

Q: And the pKd [20, 31]?
A: 3.67

Q: What about the pKd [21, 31] of the same binder?
A: below the threshold

Q: What about the pKd [22, 31] of the same binder?
A: below the threshold

Q: What about the pKd [23, 31] of the same binder?
A: below the threshold

Q: And the pKd [24, 31]?
A: below the threshold

Q: And the pKd [25, 31]?
A: below the threshold

Q: What about the pKd [26, 31] of the same binder?
A: below the threshold

Q: What about the pKd [27, 31] of the same binder?
A: below the threshold

Q: What about the pKd [28, 31] of the same binder?
A: below the threshold

Q: And the pKd [29, 31]?
A: below the threshold

Q: And the pKd [30, 31]?
A: below the threshold

Q: How did the pKd [1, 32] turn out when HTHSYIETHV [CNKSR2, Q8WXI2] was run?
A: below the threshold

Q: And the pKd [2, 32]?
A: below the threshold

Q: And the pKd [3, 32]?
A: below the threshold

Q: What about the pKd [4, 32] of the same binder?
A: below the threshold

Q: What about the pKd [5, 32] of the same binder?
A: 4.57

Q: And the pKd [6, 32]?
A: below the threshold

Q: And the pKd [7, 32]?
A: 3.9

Q: And the pKd [8, 32]?
A: 5.64

Q: What about the pKd [9, 32] of the same binder?
A: 4.58

Q: What about the pKd [10, 32] of the same binder?
A: below the threshold

Q: What about the pKd [11, 32] of the same binder?
A: below the threshold

Q: What about the pKd [12, 32] of the same binder?
A: below the threshold

Q: What about the pKd [13, 32] of the same binder?
A: below the threshold

Q: What about the pKd [14, 32] of the same binder?
A: below the threshold

Q: And the pKd [15, 32]?
A: 3.47

Q: And the pKd [16, 32]?
A: 3.9

Q: What about the pKd [17, 32] of the same binder?
A: below the threshold

Q: What about the pKd [18, 32] of the same binder?
A: 5.21

Q: And the pKd [19, 32]?
A: below the threshold

Q: What about the pKd [20, 32] of the same binder?
A: 4.54

Q: What about the pKd [21, 32] of the same binder?
A: below the threshold

Q: And the pKd [22, 32]?
A: 4.37

Q: And the pKd [23, 32]?
A: 3.85

Q: And the pKd [24, 32]?
A: below the threshold

Q: What about the pKd [25, 32] of the same binder?
A: 4.23

Q: What about the pKd [26, 32] of the same binder?
A: below the threshold

Q: What about the pKd [27, 32] of the same binder?
A: 4.75

Q: And the pKd [28, 32]?
A: 5.29

Q: And the pKd [29, 32]?
A: 4.42

Q: What about the pKd [30, 32] of the same binder?
A: 4.83

Q: ERKLSSESQV [LRP4, O75096] was tested. Which pKd [1, 33] did it give?
A: below the threshold

Q: What about the pKd [2, 33] of the same binder?
A: below the threshold

Q: And the pKd [3, 33]?
A: below the threshold

Q: What about the pKd [4, 33] of the same binder?
A: below the threshold

Q: And the pKd [5, 33]?
A: below the threshold

Q: What about the pKd [6, 33] of the same binder?
A: below the threshold

Q: And the pKd [7, 33]?
A: 3.59

Q: What about the pKd [8, 33] of the same binder?
A: 3.63

Q: And the pKd [9, 33]?
A: 4.61

Q: What about the pKd [10, 33] of the same binder?
A: 4.39

Q: What about the pKd [11, 33] of the same binder?
A: below the threshold

Q: What about the pKd [12, 33] of the same binder?
A: below the threshold

Q: What about the pKd [13, 33] of the same binder?
A: below the threshold

Q: What about the pKd [14, 33] of the same binder?
A: below the threshold

Q: And the pKd [15, 33]?
A: below the threshold

Q: What about the pKd [16, 33] of the same binder?
A: 4.01

Q: What about the pKd [17, 33] of the same binder?
A: below the threshold

Q: What about the pKd [18, 33] of the same binder?
A: 3.96

Q: And the pKd [19, 33]?
A: below the threshold

Q: What about the pKd [20, 33] of the same binder?
A: 4.11

Q: What about the pKd [21, 33] of the same binder?
A: below the threshold

Q: And the pKd [22, 33]?
A: 4.79

Q: What about the pKd [23, 33] of the same binder?
A: 3.81

Q: What about the pKd [24, 33] of the same binder?
A: below the threshold

Q: What about the pKd [25, 33] of the same binder?
A: below the threshold

Q: What about the pKd [26, 33] of the same binder?
A: below the threshold

Q: And the pKd [27, 33]?
A: below the threshold

Q: What about the pKd [28, 33] of the same binder?
A: 4.34

Q: What about the pKd [29, 33] of the same binder?
A: 4.38

Q: And the pKd [30, 33]?
A: 3.48
